Consider two molecules from article PMC11869522, “Competitive displacement of lipoprotein lipase from heparan sulfate is orchestrated by a disordered acidic cluster in GPIHBP1” (Journal of Lipid Research, 2025).

One series concerns bLPL. Kind of series: PCSK3 cleavage of LPL (SDS-PAGE densitometry). The series is classed as biochemical, bovine. The settings on record: 20 μM bLPL, 25°C; for protection of LPL against ANGPTL4-induced cleavage by PCSK3 / protection of LPL against PCSK3 cleavage triggered by spontaneous unfolding: 0–240 min; for protection of LPL against PCSK3 cleavage triggered by spontaneous unfolding: 4 units PCSK3, without ANGPTL4, 25 μM GPIHBP1 variant. As for the experimental part: To determine if charge-variants of GPIHBP1 confer distinct resistance to ANGPTL4-facilitated cleavage of LPL after Arg^324 by PCSK3 ([33]), we incubated purified bLPL (20 μM) with PCSK3 (4 units) for 0–240 min, either alone or in the presence of ANGPTL4 (2 μM) and/or GPIHBP1 (25 μM) at 25°C in 10 mM 2-(N-morpholino) ethane sulfonic acid (MES), 150 mM NaCl, 1 mM CaCl2, pH 7.0. We tested four different GPIHBP1 variants: GPIHBP1^1–131, GPIHBP1^Cluster1-neutral, GPIHBP1^Cluster2-neutral, and GPIHBP1^34–131 (LU domain only). PCSK3 cleavage was stopped by boiling in SDS-PAGE sample buffer (reduced and alkylated) and the degree of cleavage was assessed by SDS-PAGE using 12% Bis-Tris SDS-PAGE gels followed by densitometric scanning of the corresponding Coomassie blue–stained SDS-polyacrylamide gels.
Secretion of LPL by adipocytes is modulated in an autocrine manner by ANGPTL4. […] In the presence of endogenous ANGPTL4, a significant fraction of LPL was cleaved by PCSK3 in the trans-Golgi compartment. […] The presence of GPIHBP1 dramatically delayed PCSK3 cleavage of LPL ([33]). To assess the role of the acidic tail in GPIHBP1 on this delay, we incubated 20 μM bLPL with 4 units of PCSK3 either alone or in the presence of 2 μM ANGPTL4. We observed that the presence of sub-stoichiometric amounts of ANGPTL4 reduced the half-life of intact bLPL from 110 min to less than 5 min (Fig. 5A). […] Our results emphasized the essential role of GPIHBP1’s acidic tail in protecting LPL against ANGPTL4-induced cleavage by PCSK3.
Fig. 5 GPIHBP1 reduces ANGPTL4-facillitated PSCK3 cleavage of LPL. 20 μM bLPL was incubated with 4 units of PSCK3 for 0–240 min at 25°C and the extent of LPL cleavage after Arg^324 was assessed by densitometric scanning of Coomassie–blue stained polyacrylamide after SDS-PAGE of reduced and alkylated samples. A: PSCK3 cleavage of LPL is accelerated by the presence of 2 μM ANGPTL4—present at sub-stoichiometric amounts compared to bLPL (20 μM). 25 μM intact GPIHBP1, but not GPIHBP1^34–131 mitigates PSCK3 cleavage of LPL. B: Both GPIHBP1^Cluster1-neutral and GPIHBP1^Cluster2-neutral rescue LPL from cleavage by PSCK3 in the absence of ANGPTL4 and both are more efficient than GPIHBP1^34–131. C: in the presence of 2 μM ANGPTL4, 25 μM GPIHBP1^Cluster1-neutral protects LPL from PSCK3 cleavage more efficiently than the GPIHBP1^Cluster2-neutral, which indicates a more prominent role of acidic cluster 2 in protecting LPL from ANGPTL4-catalyzed unfolding and subsequent PSCK3 cleavage. Shown are the mean values (±SEM) for intact LPL relative to that present at time 0 min for 3–5 independent time-course experiments. Some curves appear in multiple panels to increase clarity.

In another series the test system is bovine LPL. Kind of series: Native PAGE binding to bovine LPL. As to conditions: 4 µM LPL with 18 µM GPIHBP1, 30 min on ice; Coomassie staining. As for the experimental part: (§1) Distinct impacts of disordered acidic clusters in GPIHBP1
(§2) To confirm interactions between puri fi ed human GPIHBP11–131, G P IH B P 1 Cluster1-neutral, or GPIHBP1 Cluster2-neutral with human, mouse, and bovine LPL, these protein pairs were incubated for 30 min on ice (4 µM LPL with 18 µM GPIHBP1) before they were analyzed by native PAGE. As th ese concentrations were well above t he K D of 0.2 nM for the wildtype LPL•GPIHBP1 interaction, LPL is saturated with GPIHBP1 in these experiments (1). […]
(§3) spect r a for the purified GPIHBP1 variants wer e r ecor ded at 25°C in Helman cuvettes (path- length of 1 mm) with a scan rate of 50 nm/ min c ove r i ng the range of 190- 250 nm, averaging three scans for each protein. Spectra for the pr ote i ns were compared after converting to molar ellipticity using the following equation, […] where, Mw is the molecular weight of the protein, c is the protein concentration in g/l, l is the pat h-length of the cuvette, Nr number of amino acid residues in the protein.
(§4) Figure S1 : Binding of GPIHBP1 charge mutants to LPL as assessed by Native PAGE. The electrophoretic mobility of GPIHBP1 variants alone or in presence of purified human LPL ( A), b ovine LPL (B), and murine LPL (C) was assessed by native PAGE followed by Coomassie blue staining. […]

The next series has as its system mouse LPL. As to the kind of experiment: Native PAGE binding to mouse LPL. The settings on record: 4 µM LPL with 18 µM GPIHBP1, 30 min on ice; Coomassie staining. The procedure:
as §1, §2, §3, §4

Where [1] appears, read: 4 units PCSK3, 2 μM ANGPTL4, 25 μM GPIHBP1 variant.

B1: GPIHBP1^Cluster1-neutral: GPIHBP1 mutant with all Glu/Asp replaced by Gln/Asn at residues 1–17 (protein)
chain: QTQQQQQQQNQNHGPNNYDEEDEDEVEEEETNRLPGGGSRVLLRCYTCKSLPRDERCNLTQNCSHGQTCTTLIAHGNTESGLLTTHSTWCTDSCQPITKTVEGTQVTMTCCQSSLCNVPPWQSSRVQDPTG
modifications: Tyr18 sulfation present in less than 40%; one bi-antennary N-linked glycosylation; left off: uPAR domain III, N-terminal, cleaved
As for B1, the “protection of LPL against ANGPTL4-induced cleavage by PCSK3” value in the series on bLPL (setting [1]) is on record as “significant protection”. Moreover, the “half-life of intact LPL” value in the series on bLPL (4 units PCSK3, 2 μM ANGPTL4, 25 μM GPIHBP1 variant, pH 7.0, less than 5 min without GPIHBP1) was 25 min. For the same molecule, in the series on bLPL, the “protection of LPL against PCSK3 cleavage triggered by spontaneous unfolding” value is listed as “prevented that cleavage completely”. Further, the “binding to bLPL as judged by native PAGE” value with bovine LPL is recorded as “bound”. For the same molecule, in the series with mouse LPL, the “binding to mLPL as judged by native PAGE” value is “bound”.

B2: GPIHBP1^Cluster2-neutral: GPIHBP1 mutant with all Glu/Asp replaced by Gln/Asn at residues 19–30 (protein)
chain: QTQQEEEEEDEDHGPDDYNQQNQNQVQQQQTNRLPGGGSRVLLRCYTCKSLPRDERCNLTQNCSHGQTCTTLIAHGNTESGLLTTHSTWCTDSCQPITKTVEGTQVTMTCCQSSLCNVPPWQSSRVQDPTG
modifications: Tyr18 sulfation absent; one bi-antennary N-linked glycosylation; left off: uPAR domain III, N-terminal, cleaved
As to B2, the “protection of LPL against ANGPTL4-induced cleavage by PCSK3” value in the series with bLPL (setting [1]) is listed as “marginal protection”. Further, in the series on bLPL, the “protection of LPL against PCSK3 cleavage triggered by spontaneous unfolding” value is “prevented that cleavage completely”. Further, in the series with bovine LPL, the “binding to bLPL as judged by native PAGE” value was “bound”. In addition, the “binding to mLPL as judged by native PAGE” value in the series with mouse LPL is “bound”.
